Test results taken from the supplement of paper PMC10126150.
± gives the standard deviation of the averaged measurements.

test system: ATP; assay: switch fluorescence ratio, 500 uM ATP over buffer (Cy3 cluster intensity, sum of 5 cycles each) (fold (ratio)); higher = stronger signal-on switching upon ATP binding; sequences stand for … in TCGTCGGCAGCGTCAGATGTGTATAAGAGACAGTTTTTTTTTTTTTTTTTTTTTTTTT…TC; conditions: aptamer strand: ATP DNA aptamer (quencher-CACCTGGGGGAGTATTGCGGAGGAAGG + anchor), 100 nM annealed; ATP concentration: 500 uM
In short: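 Between each of five buffer/ATP cycles, the flow-cell was stripped with NaOH and re-annealed. Each cycle imaged Cy3-labelled switching-strand clusters, annealed to 100 nM quencher-labelled ATP aptamer on a modified Illumina MiSeq flow-cell, first in selection buffer and then after 15 min with 500 uM ATP at 22 °C. The fluorescence ratio is summed target-cycle over summed buffer-cycle Cy3 intensity per cluster, averaged per switch-domain sequence, with clusters outside 100-1000 RFU excluded.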
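Further: ATP exposure 15 min at 22 °C before imaging.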

Sequence	switch fluorescence ratio
TGTGGGCTGT	1.02 ± 0.015
TGTGGGGAAG	0.989 ± 0.016
TGTGGGGAAT	1.04 ± 0.075
TGTGGGGATG	1.01 ± 0.02
TGTGGGGCAT	1.15 ± 0.27
TGTGGGGCC	1.04 ± 0.03
TGTGGGGGGC	1 ± 0.038
TGTGGGGGGG	1.01 ± 0.045
TGTGGGGTCT	1.02 ± 0.038
TGTGGGGTGT	1.039 ± 0.0096
TGTGGGTTGG	0.956 ± 0.018
TGTGGGTTTG	0.958 ± 0.012
TGTGGGTTTT	1.02 ± 0.056
TGTGGTATAT	0.993 ± 0.024
TGTGGTCTGA	1.01 ± 0.09
TGTGGTCTGT	0.981 ± 0.033
TGTGGTGCAG	1 ± 0.042
TGTGGTGGC	0.995 ± 0.019
TGTGGTGGGC	0.967 ± 0.0012
TGTGGTGTTT	0.984 ± 0.036
TGTGGTTTTT	1.01 ± 0.031
TGTGTAAGGG	1.02 ± 0.029
TGTGTACAGG	0.978 ± 0.017
TGTGTACCG	1.01 ± 0.065
TGTGTCACCT	1.09 ± 0.025

Sequence	switch fluorescence ratio
TGTGTGCGGC	1 ± 0.028
TGTGTGTGGA	1.04 ± 0.03
TGTGTGTTTT	1.01 ± 0.027
TGTGTTCCAA	1.002 ± 0.0047
TGTGTTGTCA	1.01 ± 0.011
TGTGTTTACT	0.991 ± 0.022
TGTGTTTTAG	0.976 ± 0.015
TGTGTTTTTA	1.006 ± 0.0016
TGTTAAAAAA	1.01 ± 0.02
TGTTAAATGA	0.97 ± 0.013
TGTTAACGGT	0.991 ± 0.071
TGTTAAGGGG	1.18 ± 0.21
TGTTACAGAG	1.01 ± 0.052
TGTTACGGAG	1.009 ± 0.0042
TGTTACGTTT	0.992 ± 0.021
TGTTAGAATC	0.963 ± 0.012
TGTTAGGAAT	1 ± 0.021
TGTTAGGTAG	1.01 ± 0.011
TGTTAGTAAT	1.019 ± 0.0087
TGTTATACAT	1.01 ± 0.024
TGTTATAGAC	1.05 ± 0.041
TGTTATATGT	1.01 ± 0.012
TGTTATTCAT	0.985 ± 0.041
TGTTATTGTT	1.03 ± 0.012
TGTTATTTGA	0.996 ± 0.0056

Sequence	switch fluorescence ratio
TGTTCGAGGG	1.02 ± 0.059
TGTTGAATTT	0.958 ± 0.016
TGTTGAGCTC	0.9936 ± 0.0084
TGTTGCAATT	1.01 ± 0.052
TGTTGCATAA	0.968 ± 0.016
TGTTGCGCTA	1.02 ± 0.029
TGTTGCGTTG	0.954 ± 0.039
TGTTGCTCCA	1.05 ± 0.082
TGTTGCTGGG	1 ± 0.026
TGTTGGCAGG	1.02 ± 0.012
TGTTGGGAAC	1.07 ± 0.12
TGTTGGGATT	0.998 ± 0.016
TGTTGGGGCT	0.999 ± 0.04
TGTTGGTATG	0.976 ± 0.038
TGTTGGTGGT	0.988 ± 0.036
TGTTGTAAGT	0.984 ± 0.026
TGTTGTAGAA	0.973 ± 0.013
TGTTGTAGTC	0.965 ± 0.017
TGTTGTGGTC	0.9804 ± 0.0042
TGTTGTGTTT	0.989 ± 0.033
TGTTGTTACC	1.04 ± 0.022
TGTTTAAGGG	1 ± 0.021
TGTTTATCAT	0.978 ± 0.017
TGTTTATTTT	0.982 ± 0.025
TGTTTCATTC	0.978 ± 0.012

Sequence	switch fluorescence ratio
TGTTTCCCGT	1 ± 0.022
TGTTTCTACG	1 ± 0.056
TGTTTGACGA	0.991 ± 0.05
TGTTTGAGAT	1.01 ± 0.015
TGTTTGAGGC	0.997 ± 0.044
TGTTTGATAT	0.9917 ± 0.005
TGTTTGGGCC	1.03 ± 0.011
TGTTTGGTGT	0.9948 ± 0.005
TGTTTGTGTT	0.977 ± 0.013
TGTTTGTTAG	1.04 ± 0.048
TGTTTTAAGT	0.999 ± 0.036
TGTTTTAATT	0.99 ± 0.021
TGTTTTACGA	1.07 ± 0.043
TGTTTTAGGA	0.993 ± 0.015
TGTTTTGCGG	0.9696 ± 0.0063
TGTTTTGGAG	1 ± 0.032
TGTTTTGGGC	0.992 ± 0.033
TGTTTTGTGT	1.035 ± 0.0073
TGTTTTGTTT	0.995 ± 0.013
TGTTTTTAAA	0.979 ± 0.029
TGTTTTTAAG	0.99 ± 0.022
TGTTTTTAGC	1.0151 ± 0.00055
TGTTTTTGGC	1 ± 0.025
TGTTTTTTGA	0.99 ± 0.011
TTAAAAAAAG	1.01 ± 0.019

Sequence	switch fluorescence ratio
TTAAAAAGG	1.02 ± 0.037
TTAAAAAGTT	1 ± 0.031
TTAAAAATTG	0.957 ± 0.016
TTAAAACCGT	1.02 ± 0.029
TTAAAACGAA	1.01 ± 0.024
TTAAAACGGG	0.969 ± 0.037
TTAAAATATC	0.99948 ± 0.00018
TTAAAATTAT	0.996 ± 0.023
TTAAACAAGC	0.998 ± 0.017
TTAAACCTGG	1.08 ± 0.032
TTAAACTGGT	1.04 ± 0.034
TTAAACTTTT	1.04 ± 0.031
TTAAAGACCT	1.45 ± 0.042
TTAAAGCTGG	0.978 ± 0.017
TTAAAGCTGT	1.02 ± 0.063
TTAAAGCTTT	1.09 ± 0.22
TTAAAGGATC	0.968 ± 0.028
TTAAAGGGCT	0.982 ± 0.044
TTAAAGTCTC	0.946 ± 0.021
TTAAATAAGT	1 ± 0.025
TTAAATAATA	1.09 ± 0.16
TTAAATACGT	1.06 ± 0.049
TTAAATGAAA	1.02 ± 0.013
TTAAATGGTT	0.9783 ± 0.0076
TTAACCGATA	1.04 ± 0.031

Sequence	switch fluorescence ratio
TTAACGAGTG	0.999 ± 0.022
TTAACGATGA	1.01 ± 0.044
TTAACGGAGA	1.039 ± 0.0084
TTAACGGTAA	1.09 ± 0.042
TTAACTACCG	1.042 ± 0.0084
TTAACTCGAC	1.07 ± 0.038
TTAAGAACAC	1.04 ± 0.037
TTAAGAATTA	1.03 ± 0.047
TTAAGACTTC	1.02 ± 0.041
TTAAGAGGTT	0.9708 ± 0.0065
TTAAGATAGT	1.02 ± 0.028
TTAAGATTTC	1.13 ± 0.14
TTAAGCATAG	1.69 ± 0.91
TTAAGCCTGG	0.962 ± 0.022
TTAAGCGTTT	0.9948 ± 0.009
TTAAGCTGGC	1.05 ± 0.056
TTAAGGACTC	1.1 ± 0.042
TTAAGGCCAT	1.08 ± 0.13
TTAAGGCCCG	1.01 ± 0.012
TTAAGGCGGG	1 ± 0.05
TTAAGGGATA	1.03 ± 0.082
TTAAGGGCTC	1 ± 0.013
TTAAGGGGGC	0.969 ± 0.042
TTAAGGTTAT	1.02 ± 0.032
TTAAGTAATA	1.02 ± 0.014

Sequence	switch fluorescence ratio
TTAAGTAGTG	0.98 ± 0.014
TTAAGTATGT	1.08 ± 0.089
TTAAGTCTAT	0.9889 ± 0.0078
TTAAGTGGGC	1.12 ± 0.17
TTAAGTTATA	1.018 ± 0.0099
TTAAGTTATT	1.03 ± 0.056
TTAAGTTGGG	0.989 ± 0.038
TTAATAAATT	1.03 ± 0.018
TTAATAGCGT	0.999 ± 0.029
TTAATAGGCC	0.974 ± 0.036
TTAATAGTTA	0.992 ± 0.028
TTAATATAAG	1.02 ± 0.021
TTAATCGCTC	1.02 ± 0.021
TTAATCGGGG	1.05 ± 0.077
TTAATCGTAG	0.991 ± 0.013
TTAATCTGTA	0.99 ± 0.068
TTAATGAATT	0.994 ± 0.014
TTAATGATTT	1 ± 0.034
TTAATGGAGG	1.04 ± 0.017
TTAATGTCCT	1 ± 0.02
TTAATTAAAG	0.993 ± 0.017
TTAATTCATT	1.01 ± 0.016
TTAATTGCGA	0.9861 ± 0.0048
TTAATTGCTT	1.01 ± 0.043
TTAATTTATT	0.987 ± 0.035

Sequence	switch fluorescence ratio
TTAATTTTCG	1.04 ± 0.066
TTAATTTTCT	1.04 ± 0.033
TTACAAAGGA	0.999 ± 0.017
TTACACACAC	1.53 ± 0.073
TTACAGTGGA	1.01 ± 0.0018
TTACAGTTGT	1.01 ± 0.038
TTACATATAG	1.04 ± 0.015
TTACATATCT	1.03 ± 0.0043
TTACATGTTC	0.996 ± 0.025
TTACATTGAG	0.976 ± 0.015
TTACCCATTT	1.1 ± 0.085
TTACCCTTAG	1.06 ± 0.028
TTACCTAGAG	1.04 ± 0.038
TTACCTCTGC	1.39 ± 0.067
TTACGAGGGG	0.994 ± 0.024
TTACGCAAGT	1.27 ± 0.17
TTACGCAATT	4.42 ± 0.59
TTACGCTACT	1.802 ± 0.0047
TTACGGCATG	1.03 ± 0.014
TTACGGCCTT	1.06 ± 0.012
TTACGGGCGA	0.998 ± 0.029
TTACGGGCGT	0.99 ± 0.013
TTACGGGCTA	0.9975 ± 0.0081
TTACGGGGTA	1 ± 0.011
TTACGGGGTC	1.07 ± 0.12
